From article PMC2756588

T1: Cdc25, P04821
T1 sequence (P04821 50-136, looked up): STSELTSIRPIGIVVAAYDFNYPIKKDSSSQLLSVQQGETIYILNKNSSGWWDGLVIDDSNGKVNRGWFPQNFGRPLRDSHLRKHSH

T2: Lsb4, P32793
T2 sequence (P32793 402-468, looked up): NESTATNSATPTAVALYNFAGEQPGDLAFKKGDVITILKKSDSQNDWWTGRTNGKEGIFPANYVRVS

T3: Lsb3, P43603
T3 sequence (P43603 385-451, looked up): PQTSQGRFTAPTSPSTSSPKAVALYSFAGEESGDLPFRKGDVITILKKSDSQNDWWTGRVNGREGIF

T4: Bzz1-2, P38822
T4 sequence (P38822 568-633, looked up): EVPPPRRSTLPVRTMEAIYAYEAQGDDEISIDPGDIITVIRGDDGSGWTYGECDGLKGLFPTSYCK

T5: Nbp2, Q12163
T5 sequence (Q12163 103-180, looked up): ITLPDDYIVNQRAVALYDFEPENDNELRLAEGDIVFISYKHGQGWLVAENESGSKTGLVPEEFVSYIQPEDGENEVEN

T6: Pin3, Q06449
T6 sequence (Q06449 53-122, looked up): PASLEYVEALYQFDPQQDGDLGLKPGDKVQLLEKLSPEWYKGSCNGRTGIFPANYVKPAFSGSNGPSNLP

T7: Fus1, P11710
T7 sequence (P11710 432-512, looked up): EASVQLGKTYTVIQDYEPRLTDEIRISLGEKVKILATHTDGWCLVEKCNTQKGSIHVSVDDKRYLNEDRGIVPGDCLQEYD

T8: Sla1-2, P32790
T8 sequence (P32790 60-140, looked up): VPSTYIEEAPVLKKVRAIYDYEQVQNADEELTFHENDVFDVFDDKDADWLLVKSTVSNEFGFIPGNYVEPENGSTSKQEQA

T9: Pex13, P80667
T9 sequence (P80667 295-386, looked up): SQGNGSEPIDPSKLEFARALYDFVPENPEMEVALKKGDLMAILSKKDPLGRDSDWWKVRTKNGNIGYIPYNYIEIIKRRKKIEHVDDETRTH

T10: Bzz1-1, P38822
T10 sequence (P38822 478-572, looked up): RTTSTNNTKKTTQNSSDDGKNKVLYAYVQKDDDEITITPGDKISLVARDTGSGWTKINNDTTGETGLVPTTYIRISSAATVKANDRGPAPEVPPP

T11: Myo5, Q04439
T11 sequence (Q04439 1072-1160, looked up): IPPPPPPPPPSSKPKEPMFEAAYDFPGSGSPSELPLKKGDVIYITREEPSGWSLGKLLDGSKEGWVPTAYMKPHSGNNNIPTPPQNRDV

T12: Lsb1, P53281
T12 sequence (P53281 45-122, looked up): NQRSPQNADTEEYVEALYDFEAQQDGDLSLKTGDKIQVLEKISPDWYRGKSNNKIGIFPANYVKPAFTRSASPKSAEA

T13: Boi1, P38041
T13 sequence (P38041 1-86, looked up): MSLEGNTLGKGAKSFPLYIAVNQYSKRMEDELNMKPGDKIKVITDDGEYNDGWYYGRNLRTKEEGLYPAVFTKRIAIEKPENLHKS

T14: Hof1, Q05080
T14 sequence (Q05080 590-669, looked up): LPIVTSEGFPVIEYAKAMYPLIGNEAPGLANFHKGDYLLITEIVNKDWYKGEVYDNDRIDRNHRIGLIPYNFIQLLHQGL

T15: Cyk3, Q07533
T15 sequence (Q07533 1-83, looked up): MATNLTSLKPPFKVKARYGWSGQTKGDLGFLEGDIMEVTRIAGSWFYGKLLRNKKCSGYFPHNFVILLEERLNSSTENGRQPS

T16: Bud14, P27637
T16 sequence (P27637 247-328, looked up): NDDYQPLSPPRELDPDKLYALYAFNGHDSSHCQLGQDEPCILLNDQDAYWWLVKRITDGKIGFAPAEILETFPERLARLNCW

T17: Abp1, P15891
T17 sequence (P15891 535-592, looked up): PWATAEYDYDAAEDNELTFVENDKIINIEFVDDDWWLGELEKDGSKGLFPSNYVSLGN

T18: Boi2, P39969
T18 sequence (P39969 32-116, looked up): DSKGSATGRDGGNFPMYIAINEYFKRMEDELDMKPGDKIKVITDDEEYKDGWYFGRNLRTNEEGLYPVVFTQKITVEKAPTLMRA

T19: Bbc1, P47068
T19 sequence (P47068 1-78, looked up): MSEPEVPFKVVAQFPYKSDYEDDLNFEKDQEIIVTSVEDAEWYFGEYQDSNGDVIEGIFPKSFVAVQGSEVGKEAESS

T20: Hse1, P38753
T20 sequence (P38753 208-285, looked up): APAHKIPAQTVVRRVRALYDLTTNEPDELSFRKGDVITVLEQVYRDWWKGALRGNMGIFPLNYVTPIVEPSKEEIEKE

T21: Sla1-3, P32790
T21 sequence (P32790 344-424, looked up): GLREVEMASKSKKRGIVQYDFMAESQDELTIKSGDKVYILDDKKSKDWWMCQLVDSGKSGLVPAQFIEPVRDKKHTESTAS


Target: T1, Cdc25, P04821
Experiment: SPOT array
Conditions: median of control spots 969

SPOT intensity | Binder
35 | SLSRRRFSLPSMPNV
55 | AGKRRLPLVRFKASD
15 | GLRRARYKFPGQQKI

Target: T2, Lsb4, P32793
Experiment: SPOT array
Conditions: median of control spots 397

SPOT intensity | Binder
9 | SLSRRRFSLPSMPNV
18 | AGKRRLPLVRFKASD
2 | GLRRARYKFPGQQKI

Target: Bem1-2, P29366
Sequence (P29366 139-227): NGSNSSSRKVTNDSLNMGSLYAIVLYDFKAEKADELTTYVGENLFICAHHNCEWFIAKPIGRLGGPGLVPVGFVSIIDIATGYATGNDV
Experiment: SPOT array
Conditions: median of control spots 4347

SPOT intensity | Binder
53 | SLSRRRFSLPSMPNV
3 | AGKRRLPLVRFKASD
2 | GLRRARYKFPGQQKI

Target: T3, Lsb3, P43603
Experiment: SPOT array
Conditions: median of control spots 406

SPOT intensity | Binder
4 | SLSRRRFSLPSMPNV
16 | AGKRRLPLVRFKASD
0 | GLRRARYKFPGQQKI

Target: Rvs167, P39743
Sequence (P39743 419-482): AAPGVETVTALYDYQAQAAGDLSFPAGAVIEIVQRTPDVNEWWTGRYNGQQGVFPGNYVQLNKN
Experiment: SPOT array
Conditions: median of control spots 2707

SPOT intensity | Binder
4 | SLSRRRFSLPSMPNV
6 | AGKRRLPLVRFKASD
6 | GLRRARYKFPGQQKI

Target: T4, Bzz1-2, P38822
Experiment: SPOT array
Conditions: median of control spots 4538

SPOT intensity | Binder
17 | SLSRRRFSLPSMPNV
2 | AGKRRLPLVRFKASD
1 | GLRRARYKFPGQQKI

Target: T5, Nbp2, Q12163
Experiment: SPOT array
Conditions: median of control spots 357

SPOT intensity | Binder
34 | SLSRRRFSLPSMPNV
125 | AGKRRLPLVRFKASD
22 | GLRRARYKFPGQQKI

Target: T6, Pin3, Q06449
Experiment: SPOT array
Conditions: median of control spots 2171

SPOT intensity | Binder
66 | SLSRRRFSLPSMPNV
8 | AGKRRLPLVRFKASD
4 | GLRRARYKFPGQQKI

Target: Myo3, P36006
Experiment: SPOT array
Conditions: median of control spots 468

SPOT intensity | Binder
27 | SLSRRRFSLPSMPNV
22 | AGKRRLPLVRFKASD
4 | GLRRARYKFPGQQKI

Target: T7, Fus1, P11710
Experiment: SPOT array
Conditions: median of control spots 1200

SPOT intensity | Binder
27 | SLSRRRFSLPSMPNV
23 | AGKRRLPLVRFKASD
14 | GLRRARYKFPGQQKI

Target: T8, Sla1-2, P32790
Experiment: SPOT array
Conditions: median of control spots 712

SPOT intensity | Binder
2 | SLSRRRFSLPSMPNV
3 | AGKRRLPLVRFKASD
1 | GLRRARYKFPGQQKI

Target: T9, Pex13, P80667
Experiment: SPOT array
Conditions: median of control spots 1341

SPOT intensity | Binder
28 | SLSRRRFSLPSMPNV
4 | AGKRRLPLVRFKASD
2 | GLRRARYKFPGQQKI

Target: Bem1-1, P29366
Sequence (P29366 55-141): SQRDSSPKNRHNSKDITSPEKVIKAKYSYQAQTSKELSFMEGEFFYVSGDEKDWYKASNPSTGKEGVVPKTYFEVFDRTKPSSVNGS
Experiment: SPOT array
Conditions: median of control spots 4282

SPOT intensity | Binder
0 | SLSRRRFSLPSMPNV
2 | AGKRRLPLVRFKASD
0 | GLRRARYKFPGQQKI

Target: GST
Experiment: SPOT array
Conditions: median of control spots 978

SPOT intensity | Binder
0 | SLSRRRFSLPSMPNV
4 | AGKRRLPLVRFKASD
3 | GLRRARYKFPGQQKI

Target: T10, Bzz1-1, P38822
Experiment: SPOT array
Conditions: median of control spots 4446

SPOT intensity | Binder
3 | SLSRRRFSLPSMPNV
0 | AGKRRLPLVRFKASD
2 | GLRRARYKFPGQQKI

Target: T11, Myo5, Q04439
Experiment: SPOT array
Conditions: median of control spots 471

SPOT intensity | Binder
4 | SLSRRRFSLPSMPNV
2 | AGKRRLPLVRFKASD
0 | GLRRARYKFPGQQKI

Target: Sho1, P40073
Sequence (P40073 287-367): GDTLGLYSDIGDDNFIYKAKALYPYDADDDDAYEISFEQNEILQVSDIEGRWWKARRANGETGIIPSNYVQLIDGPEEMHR
Experiment: SPOT array
Conditions: median of control spots 1148

SPOT intensity | Binder
84 | SLSRRRFSLPSMPNV
260 | AGKRRLPLVRFKASD
69 | GLRRARYKFPGQQKI

Target: T12, Lsb1, P53281
Experiment: SPOT array
Conditions: median of control spots 388

SPOT intensity | Binder
1050 | SLSRRRFSLPSMPNV
18 | AGKRRLPLVRFKASD
71 | GLRRARYKFPGQQKI

Target: T13, Boi1, P38041
Experiment: SPOT array
Conditions: median of control spots 1162

SPOT intensity | Binder
1 | SLSRRRFSLPSMPNV
16 | AGKRRLPLVRFKASD
3 | GLRRARYKFPGQQKI

Target: T14, Hof1, Q05080
Experiment: SPOT array
Conditions: median of control spots 4086

SPOT intensity | Binder
77 | SLSRRRFSLPSMPNV
7 | AGKRRLPLVRFKASD
6 | GLRRARYKFPGQQKI

Target: T15, Cyk3, Q07533
Experiment: SPOT array
Conditions: median of control spots 1451

SPOT intensity | Binder
1 | SLSRRRFSLPSMPNV
9 | AGKRRLPLVRFKASD
0 | GLRRARYKFPGQQKI

Target: T16, Bud14, P27637
Experiment: SPOT array
Conditions: median of control spots 956

SPOT intensity | Binder
15 | SLSRRRFSLPSMPNV
28 | AGKRRLPLVRFKASD
9 | GLRRARYKFPGQQKI

Target: T17, Abp1, P15891
Experiment: SPOT array
Conditions: median of control spots 935

SPOT intensity | Binder
70 | SLSRRRFSLPSMPNV
262 | AGKRRLPLVRFKASD
47 | GLRRARYKFPGQQKI

Target: T18, Boi2, P39969
Experiment: SPOT array
Conditions: median of control spots 1161

SPOT intensity | Binder
1 | SLSRRRFSLPSMPNV
1 | AGKRRLPLVRFKASD
0 | GLRRARYKFPGQQKI

Target: T19, Bbc1, P47068
Experiment: SPOT array
Conditions: median of control spots 796

SPOT intensity | Binder
98 | SLSRRRFSLPSMPNV
507 | AGKRRLPLVRFKASD
79 | GLRRARYKFPGQQKI

Target: T20, Hse1, P38753
Experiment: SPOT array
Conditions: median of control spots 1727

SPOT intensity | Binder
97 | SLSRRRFSLPSMPNV
9 | AGKRRLPLVRFKASD
12 | GLRRARYKFPGQQKI

Target: T21, Sla1-3, P32790
Experiment: SPOT array
Conditions: median of control spots 5475

SPOT intensity | Binder
388 | SLSRRRFSLPSMPNV
27 | AGKRRLPLVRFKASD
50 | GLRRARYKFPGQQKI
